Results as given in the Human Domainome abundance scans (Beltran et al. 2025).
± gives the uncertainty stated by the source.

B1: POU domain, class 3, transcription factor 4, residues 280 to 335; numbered along this chain, P49335 (parent)
chain: KKRTSIEVSVKGVLETHFLKCPKPAAQEISSLADSLQLEKEVVRVWFCNRRQKEKR

Variants of: B1
Assay: abundance fitness (aPCA) (normalised: wild type 0, dead -1); higher = more abundant; growth selection in yeast, the domain comes from the species named
Conditions: Homo sapiens

Question: Which abundance fitness does the source give for KKRTSIEVSVKGVLETHFLKCPKRAAQEISSLADSLQLEKEVVRVWFCNRRQKEKR [P24R] here?
Answer: The abundance fitness was -0.405 ± 0.22.

Question: Which abundance fitness does the source give for KKRTSIEVSVKGVLETHFLKCPKWAAQEISSLADSLQLEKEVVRVWFCNRRQKEKR [P24W] here?
Answer: Its abundance fitness is -0.514 ± 0.27.

Question: With KKRTSIEVSVKGVLETHFLKCPKYAAQEISSLADSLQLEKEVVRVWFCNRRQKEKR [P24Y] as the variant, how does the abundance fitness read?
Answer: Its abundance fitness is -1.07 ± 0.43.

Question: For KKRTSIEVSVKGVLETHFLKCPKPAAMEISSLADSLQLEKEVVRVWFCNRRQKEKR [Q27M], which abundance fitness is on record?
Answer: The abundance fitness was -0.344 ± 0.21.

Question: For KKRTSIEVSVKGVLETHFLKCPKPAAHEISSLADSLQLEKEVVRVWFCNRRQKEKR [Q27H], which abundance fitness is on record?
Answer: The abundance fitness was -0.074 ± 0.26.

Question: For KKRTSIEVSVKGVLETHFLKCPKPAACEISSLADSLQLEKEVVRVWFCNRRQKEKR [Q27C], which abundance fitness is on record?
Answer: Its abundance fitness is -0.16 ± 0.18.

Question: For KKRTSIEVSVKGVLETHFLKCPKPAAREISSLADSLQLEKEVVRVWFCNRRQKEKR [Q27R], which abundance fitness is on record?
Answer: Its abundance fitness is -0.054 ± 0.12.

Question: For KKRTSIEVSVKGVLETHFLKCPKPAATEISSLADSLQLEKEVVRVWFCNRRQKEKR [Q27T], which abundance fitness is on record?
Answer: Its abundance fitness is -0.335 ± 0.15.

Question: With KKRTSIEVSVKGVLETHFLKCPKPAAAEISSLADSLQLEKEVVRVWFCNRRQKEKR [Q27A] as the variant, how does the abundance fitness read?
Answer: Its abundance fitness is 0.078 ± 0.12.

Question: Which abundance fitness does the source give for KKRTSIEVSVKGVLETHFLKCPKPAAPEISSLADSLQLEKEVVRVWFCNRRQKEKR [Q27P] here?
Answer: Its abundance fitness is -0.761 ± 0.24.

Question: With KKRTSIEVSVKGVLETHFLKCPKPAAVEISSLADSLQLEKEVVRVWFCNRRQKEKR [Q27V] as the variant, how does the abundance fitness read?
Answer: The abundance fitness was -0.434 ± 0.12.

Question: Which abundance fitness does the source give for KKRTSIEVSVKGVLETHFLKCPKPAAKEISSLADSLQLEKEVVRVWFCNRRQKEKR [Q27K] here?
Answer: Its abundance fitness is -0.157 ± 0.17.

Question: For KKRTSIEVSVKGVLETHFLKCPKPAADEISSLADSLQLEKEVVRVWFCNRRQKEKR [Q27D], which abundance fitness is on record?
Answer: Its abundance fitness is 0.147 ± 0.19.

Question: Which abundance fitness does the source give for KKRTSIEVSVKGVLETHFLKCPKPAAGEISSLADSLQLEKEVVRVWFCNRRQKEKR [Q27G] here?
Answer: The abundance fitness was -0.172 ± 0.1.

Question: Which abundance fitness does the source give for KKRTSIEVSVKGVLETHFLKCPKPALQEISSLADSLQLEKEVVRVWFCNRRQKEKR [A26L] here?
Answer: The abundance fitness was -0.07 ± 0.11.

Question: For KKRTSIEVSVKGVLETHFLKCPKPAVQEISSLADSLQLEKEVVRVWFCNRRQKEKR [A26V], which abundance fitness is on record?
Answer: The abundance fitness was -0.254 ± 0.13.

Question: Which abundance fitness does the source give for KKRTSIEVSVKGVLETHFLKCPKPAYQEISSLADSLQLEKEVVRVWFCNRRQKEKR [A26Y] here?
Answer: Its abundance fitness is -0.254 ± 0.23.

Question: Which abundance fitness does the source give for KKRTSIEVSVKGVLETHFLKCPKPADQEISSLADSLQLEKEVVRVWFCNRRQKEKR [A26D] here?
Answer: Its abundance fitness is 0.396 ± 0.2.

Question: With KKRTSIEVSVKGVLETHFLKCPKPAKQEISSLADSLQLEKEVVRVWFCNRRQKEKR [A26K] as the variant, how does the abundance fitness read?
Answer: The abundance fitness was -0.415 ± 0.21.

Question: With KKRTSIEVSVKGVLETHFLKCPKPAWQEISSLADSLQLEKEVVRVWFCNRRQKEKR [A26W] as the variant, how does the abundance fitness read?
Answer: The abundance fitness was -0.05 ± 0.12.

Question: For KKRTSIEVSVKGVLETHFLKCPKPAFQEISSLADSLQLEKEVVRVWFCNRRQKEKR [A26F], which abundance fitness is on record?
Answer: Its abundance fitness is -0.451 ± 0.26.

Question: Which abundance fitness does the source give for KKRTSIEVSVKGVLETHFLKCPKPANQEISSLADSLQLEKEVVRVWFCNRRQKEKR [A26N] here?
Answer: The abundance fitness was -0.043 ± 0.22.

Question: With KKRTSIEVSVKGVLETHFLKCPKPAPQEISSLADSLQLEKEVVRVWFCNRRQKEKR [A26P] as the variant, how does the abundance fitness read?
Answer: The abundance fitness was 0.149 ± 0.19.

Question: For KKRTSIEVSVKGVLETHFLKCPKPATQEISSLADSLQLEKEVVRVWFCNRRQKEKR [A26T], which abundance fitness is on record?
Answer: Its abundance fitness is -0.017 ± 0.17.

Question: With KKRTSIEVSVKGVLETHFLKCPKPASQEISSLADSLQLEKEVVRVWFCNRRQKEKR [A26S] as the variant, how does the abundance fitness read?
Answer: Its abundance fitness is -0.095 ± 0.14.

Question: For KKRTSIEVSVKGVLETHFLKCPKPAHQEISSLADSLQLEKEVVRVWFCNRRQKEKR [A26H], which abundance fitness is on record?
Answer: The abundance fitness was -0.237 ± 0.23.

Question: For KKRTSIEVSVKGVLETHFLKCPKPAGQEISSLADSLQLEKEVVRVWFCNRRQKEKR [A26G], which abundance fitness is on record?
Answer: Its abundance fitness is -0.37 ± 0.12.

Question: Which abundance fitness does the source give for KKRTSIEVSVKGVLETHFLKCPKPAEQEISSLADSLQLEKEVVRVWFCNRRQKEKR [A26E] here?
Answer: The abundance fitness was 0.385 ± 0.15.

Question: For KKRTSIEVSVKGVLETHFLKCPKPACQEISSLADSLQLEKEVVRVWFCNRRQKEKR [A26C], which abundance fitness is on record?
Answer: Its abundance fitness is -0.211 ± 0.18.

Question: Which abundance fitness does the source give for KKRTSIEVSVKGVLETHFLKCPKPAIQEISSLADSLQLEKEVVRVWFCNRRQKEKR [A26I] here?
Answer: Its abundance fitness is -0.168 ± 0.21.

Question: With KKRTSIEVSVKGVLETHFLKCPKPAMQEISSLADSLQLEKEVVRVWFCNRRQKEKR [A26M] as the variant, how does the abundance fitness read?
Answer: The abundance fitness was 0.108 ± 0.18.

Question: With KKRTSIEVSVKGVLETHFLKCPKPCAQEISSLADSLQLEKEVVRVWFCNRRQKEKR [A25C] as the variant, how does the abundance fitness read?
Answer: Its abundance fitness is 0.18 ± 0.11.

Question: With KKRTSIEVSVKGVLETHFLKCPKPQAQEISSLADSLQLEKEVVRVWFCNRRQKEKR [A25Q] as the variant, how does the abundance fitness read?
Answer: Its abundance fitness is 0.045 ± 0.16.

Question: With KKRTSIEVSVKGVLETHFLKCPKPHAQEISSLADSLQLEKEVVRVWFCNRRQKEKR [A25H] as the variant, how does the abundance fitness read?
Answer: Its abundance fitness is -0.096 ± 0.27.

Question: With KKRTSIEVSVKGVLETHFLKCPKPKAQEISSLADSLQLEKEVVRVWFCNRRQKEKR [A25K] as the variant, how does the abundance fitness read?
Answer: The abundance fitness was -0.015 ± 0.33.

Question: For KKRTSIEVSVKGVLETHFLKCPKPDAQEISSLADSLQLEKEVVRVWFCNRRQKEKR [A25D], which abundance fitness is on record?
Answer: The abundance fitness was 0.545 ± 0.18.

Question: With KKRTSIEVSVKGVLETHFLKCPKPIAQEISSLADSLQLEKEVVRVWFCNRRQKEKR [A25I] as the variant, how does the abundance fitness read?
Answer: The abundance fitness was -0.297 ± 0.22.

Question: For KKRTSIEVSVKGVLETHFLKCPKPWAQEISSLADSLQLEKEVVRVWFCNRRQKEKR [A25W], which abundance fitness is on record?
Answer: Its abundance fitness is -0.764 ± 0.17.

Question: Which abundance fitness does the source give for KKRTSIEVSVKGVLETHFLKCPKPRAQEISSLADSLQLEKEVVRVWFCNRRQKEKR [A25R] here?
Answer: Its abundance fitness is -0.088 ± 0.096.

Question: With KKRTSIEVSVKGVLETHFLKCPKPLAQEISSLADSLQLEKEVVRVWFCNRRQKEKR [A25L] as the variant, how does the abundance fitness read?
Answer: Its abundance fitness is -0.262 ± 0.11.

Question: With KKRTSIEVSVKGVLETHFLKCPKPPAQEISSLADSLQLEKEVVRVWFCNRRQKEKR [A25P] as the variant, how does the abundance fitness read?
Answer: The abundance fitness was -0.31 ± 0.2.

Question: For KKRTSIEVSVKGVLETHFLKCPKPMAQEISSLADSLQLEKEVVRVWFCNRRQKEKR [A25M], which abundance fitness is on record?
Answer: Its abundance fitness is -0.073 ± 0.19.

Question: For KKRTSIEVSVKGVLETHFLKCPKPVAQEISSLADSLQLEKEVVRVWFCNRRQKEKR [A25V], which abundance fitness is on record?
Answer: The abundance fitness was -0.476 ± 0.14.

Question: Which abundance fitness does the source give for KKRTSIEVSVKGVLETHFLKCPKPTAQEISSLADSLQLEKEVVRVWFCNRRQKEKR [A25T] here?
Answer: The abundance fitness was 0.495 ± 0.14.

Question: Which abundance fitness does the source give for KKRTSIEVSVKGVLETHFLKCPKPFAQEISSLADSLQLEKEVVRVWFCNRRQKEKR [A25F] here?
Answer: The abundance fitness was -0.769 ± 0.21.

Question: With KKRTSIEVSVKGVLETHFLKCPKPGAQEISSLADSLQLEKEVVRVWFCNRRQKEKR [A25G] as the variant, how does the abundance fitness read?
Answer: Its abundance fitness is 0.313 ± 0.1.

Question: Which abundance fitness does the source give for KKRTSIEVSVKGVLETHFLKCPKPSAQEISSLADSLQLEKEVVRVWFCNRRQKEKR [A25S] here?
Answer: Its abundance fitness is 0.457 ± 0.1.
